Assay results: patent US10464978B2, “Peptides and combination of peptides for use in immunotherapy against ovarian cancer and other cancers” (immatics biotechnologies GmbH, priority 2015, dated 2019)

The substances below were run against HLA-A*02:01 (Homo sapiens, UniProt P04439, D140Y/D185E/D98H/E176V/E277Q/G131W/G231S/I119V/I121R/I166T/I218V/L300P/L318F/N151K/N90K/P208A/P217A/Q86G/Q94H/R138H/R169H/T345S) (assay: MHC binding assay: UV-ligand exchange with beta2m ELISA (peptide exchange yield)). Conditions: binding to HLA-A*02:01.
Method in brief: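 Peptide-MHC complexes formed by UV-ligand exchange, a UV-cleavable peptide being replaced by the candidate peptide. Exchange products diluted 100-fold, captured on streptavidin-coated plates for 1h at 37° C, then detected with 2 ug/ml HRP anti-β2m (1h, 37° C) and TMB, absorbance 450 nm; value is exchange yield.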

| Substance | Peptide exchange (MHC class I binding score, peptide exchange yield) |
| --- | --- |
| 495 (FIFSEKPVFV; listed as Homo sapiens) [compound 495] | “+++” (≥50 = +++) |
| 496 (FLVEKQPPQV; listed as Homo sapiens) [compound 496] | “+++” (≥50 = +++) |
| 497 (GLLEKLTAI; listed as Homo sapiens) [compound 497] | “+++” (≥50 = +++) |
| 498 (KLWTGGLDNTV; listed as Homo sapiens) [compound 498] | “+++” (≥50 = +++) |
| 499 (KIFDIDEAEEGV; listed as Homo sapiens) [compound 499] | “++” (≥20% = ++) |
| 500 (SLMEDQVLQL; listed as Homo sapiens) [compound 500] | “+++” (≥50 = +++) |
| 501 (LLDPNVKSIFV; listed as Homo sapiens) [compound 501] | “+++” (≥50 = +++) |
| 502 (RLLAQVPGL; listed as Homo sapiens) [compound 502] | “+++” (≥50 = +++) |
| 503 (SLNHFTHSV; listed as Homo sapiens) [compound 503] | “+++” (≥50 = +++) |
| 504 (GLSDGNPSL; listed as Homo sapiens) [compound 504] | “++” (≥20% = ++) |
| 505 (SLAPGDVVRQV; listed as Homo sapiens) [compound 505] | “++” (≥20% = ++) |
| 506 (KLLGKVETA; listed as Homo sapiens) [compound 506] | “+++” (≥50 = +++) |
| 507 (KLIDDQDISISL; listed as Homo sapiens) [compound 507] | “+++” (≥50 = +++) |
| 508 (ILAQEQLVVGV; listed as Homo sapiens) [compound 508] | “+++” (≥50 = +++) |
| 509 (FLFDTKPLIV; listed as Homo sapiens) [compound 509] | “+++” (≥50 = +++) |
| 510 (KLYSVVSQL; listed as Homo sapiens) [compound 510] | “++” (≥20% = ++) |
| 511 (FLDPYCSASV; listed as Homo sapiens) [compound 511] | “++” (≥20% = ++) |
| 512 (SLSEIVPCL; listed as Homo sapiens) [compound 512] | “+++” (≥50 = +++) |
| 513 (SLWPSPEQL; listed as Homo sapiens) [compound 513] | “++” (≥20% = ++) |
| 514 (ILVDWLVQV; listed as Homo sapiens) [compound 514] | “+++” (≥50 = +++) |
| 515 (LLQELVLFL; listed as Homo sapiens) [compound 515] | “+++” (≥50 = +++) |
| 516 (AVGPASILKEV; listed as Homo sapiens) [compound 516] | “++” (≥20% = ++) |

| Substance | Peptide exchange (MHC class I binding score, peptide exchange yield) |
| --- | --- |
| 517 (LLMPIPEGLTL; listed as Homo sapiens) [compound 517] | “+++” (≥50 = +++) |
| 518 (KLNAEVACV; listed as Homo sapiens) [compound 518] | “+++” (≥50 = +++) |
| 519 (GLLHLTLLL; listed as Homo sapiens) [compound 519] | “+++” (≥50 = +++) |
| 520 (LAVHPSGVAL; listed as Homo sapiens) [compound 520] | “+” (≥10% = +) |
| 521 (MLLTKLPTI; listed as Homo sapiens) [compound 521] | “+++” (≥50 = +++) |
| 522 (TLWYRSPEV; listed as Homo sapiens) [compound 522] | “++” (≥20% = ++) |
| 523 (YQIPRTFTL; listed as Homo sapiens) [compound 523] | “++” (≥20% = ++) |
| 524 (ALIENLTHQI; listed as Homo sapiens) [compound 524] | “++” (≥20% = ++) |
| 525 (VLLEAGEGLVTI; listed as Homo sapiens) [compound 525] | “+++” (≥50 = +++) |
| 526 (RLAEVGQYEQV; listed as Homo sapiens) [compound 526] | “++” (≥20% = ++) |
| 527 (FLLEPGNLEV; listed as Homo sapiens) [compound 527] | “++++” (≥75% = ++++) |
| 528 (SVAEGRALMSV; listed as Homo sapiens) [compound 528] | “+++” (≥50 = +++) |
| 529 (LLADELITV; listed as Homo sapiens) [compound 529] | “+++” (≥50 = +++) |
| 530 (VMYADIGGMDI; listed as Homo sapiens) [compound 530] | “+++” (≥50 = +++) |
| 531 (YTLPIASSIRL; listed as Homo sapiens) [compound 531] | “+++” (≥50 = +++) |
| 537 (TLAPGEVLRSV; listed as Homo sapiens) [compound 537] | “+++” (≥50 = +++) |
| 538 (LLLAHIIAL; listed as Homo sapiens) [compound 538] | “++” (≥20% = ++) |
| 539 (ALFDAQAQV; listed as Homo sapiens) [compound 539] | “+++” (≥50 = +++) |
| 541 (SMLEPVPEL; listed as Homo sapiens) [compound 541] | “+++” (≥50 = +++) |
| 542 (RVWDISTVSSV; listed as Homo sapiens) [compound 542] | “+++” (≥50 = +++) |
| 543 (GLLPTPITQQASL; listed as Homo sapiens) [compound 543] | “+++” (≥50 = +++) |
| 544 (LLWDVPAPSL; listed as Homo sapiens) [compound 544] | “+++” (≥50 = +++) |

| Substance | Peptide exchange (MHC class I binding score, peptide exchange yield) |
| --- | --- |
| 545 (LLADLLHNV; listed as Homo sapiens) [compound 545] | “+++” (≥50 = +++) |
| 546 (VMIAGKVAVV; listed as Homo sapiens) [compound 546] | “+++” (≥50 = +++) |
| 547 (TLDITPHTV; listed as Homo sapiens) [compound 547] | “+++” (≥50 = +++) |
| 548 (ALWENPESGEL; listed as Homo sapiens) [compound 548] | “++” (≥20% = ++) |
| 549 (AMLENASDIKL; listed as Homo sapiens) [compound 549] | “+++” (≥50 = +++) |
| 550 (FLYDEIEAEVNL; listed as Homo sapiens) [compound 550] | “+++” (≥50 = +++) |
| 551 (KLYESLLPFA; listed as Homo sapiens) [compound 551] | “+++” (≥50 = +++) |
| 552 (GLLDLPFRVGV; listed as Homo sapiens) [compound 552] | “++++” (≥75% = ++++) |
| 553 (SLLNQDLHWSL; listed as Homo sapiens) [compound 553] | “++++” (≥75% = ++++) |
| 554 (LLMPSSEDLLL; listed as Homo sapiens) [compound 554] | “+++” (≥50 = +++) |
| 555 (YVLEGLKSV; listed as Homo sapiens) [compound 555] | “+++” (≥50 = +++) |
| 556 (FLTDLEDLTL; listed as Homo sapiens) [compound 556] | “+++” (≥50 = +++) |
| 557 (KLYDDMIRL; listed as Homo sapiens) [compound 557] | “+++” (≥50 = +++) |
| 558 (GLLENIPRV; listed as Homo sapiens) [compound 558] | “+++” (≥50 = +++) |
| 559 (VTVPPGPSL; listed as Homo sapiens) [compound 559] | “++” (≥20% = ++) |
| 560 (ALWDIETGQQTTT; listed as Homo sapiens) [compound 560] | “+++” (≥50 = +++) |
| 561 (YLQLTQSEL; listed as Homo sapiens) [compound 561] | “+++” (≥50 = +++) |
| 562 (YLEELPEKLKL; listed as Homo sapiens) [compound 562] | “+++” (≥50 = +++) |
| 563 (WLLPYNGVTV; listed as Homo sapiens) [compound 563] | “+++” (≥50 = +++) |
| 564 (TVTNAVVTV; listed as Homo sapiens) [compound 564] | “+++” (≥50 = +++) |
| 565 (ALQETPTSV; listed as Homo sapiens) [compound 565] | “++” (≥20% = ++) |
| 566 (VIADGGIQNV; listed as Homo sapiens) [compound 566] | “++” (≥20% = ++) |
